Test results reported in US8658372.

Target: T1, botulinum toxoid B, P10844
T1 chain: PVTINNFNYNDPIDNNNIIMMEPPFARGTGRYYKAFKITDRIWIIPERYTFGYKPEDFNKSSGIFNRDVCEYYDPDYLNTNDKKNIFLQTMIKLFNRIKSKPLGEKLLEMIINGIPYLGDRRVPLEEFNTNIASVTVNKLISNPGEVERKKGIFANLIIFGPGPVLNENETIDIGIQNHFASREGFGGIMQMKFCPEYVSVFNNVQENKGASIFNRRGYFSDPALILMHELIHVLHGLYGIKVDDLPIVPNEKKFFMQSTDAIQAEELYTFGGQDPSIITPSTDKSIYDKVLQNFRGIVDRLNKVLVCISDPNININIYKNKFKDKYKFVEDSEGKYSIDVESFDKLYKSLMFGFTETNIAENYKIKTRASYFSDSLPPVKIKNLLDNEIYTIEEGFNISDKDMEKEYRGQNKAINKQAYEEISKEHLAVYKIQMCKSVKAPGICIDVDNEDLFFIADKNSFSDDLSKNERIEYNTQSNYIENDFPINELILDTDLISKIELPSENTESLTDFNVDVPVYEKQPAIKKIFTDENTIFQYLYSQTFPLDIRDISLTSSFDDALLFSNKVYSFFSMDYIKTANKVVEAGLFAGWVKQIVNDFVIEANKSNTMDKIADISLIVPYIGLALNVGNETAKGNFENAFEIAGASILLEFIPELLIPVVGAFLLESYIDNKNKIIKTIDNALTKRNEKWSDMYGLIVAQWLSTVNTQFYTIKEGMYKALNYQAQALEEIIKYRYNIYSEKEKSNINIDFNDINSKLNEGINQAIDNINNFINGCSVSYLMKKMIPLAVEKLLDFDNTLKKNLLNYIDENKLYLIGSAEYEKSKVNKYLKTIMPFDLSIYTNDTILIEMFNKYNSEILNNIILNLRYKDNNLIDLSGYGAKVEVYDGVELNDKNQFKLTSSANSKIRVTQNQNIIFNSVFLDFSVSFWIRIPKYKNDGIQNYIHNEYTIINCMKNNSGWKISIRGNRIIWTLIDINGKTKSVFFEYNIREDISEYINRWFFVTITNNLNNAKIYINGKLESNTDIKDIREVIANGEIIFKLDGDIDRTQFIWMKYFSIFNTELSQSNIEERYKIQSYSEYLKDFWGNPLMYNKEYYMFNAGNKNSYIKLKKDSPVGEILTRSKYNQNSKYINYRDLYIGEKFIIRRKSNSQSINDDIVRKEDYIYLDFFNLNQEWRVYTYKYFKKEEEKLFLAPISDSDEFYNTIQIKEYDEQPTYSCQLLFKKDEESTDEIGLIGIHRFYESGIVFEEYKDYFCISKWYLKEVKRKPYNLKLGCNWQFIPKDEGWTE

Question: For GIGAVLKVLTTGLPALISWIKRKRQQ (modifications not checked) [Melittin], which limit of detection is on record?
Answer: < 5 ng/mL
